# Paper PMC6066219 (PLoS ONE, 2018)
# Read-outs that look alike come from different tables or passages of the source. Marks after values point to notes of the source that are not given here. Starred links: 1 amine or outer side, 2 acyl side, 3 side chain; linkers in the order of their positions; H or OH if unused. Positions of bridges follow the written chain, without caps; N, C: chain ends. Non-standard residues stand in square brackets, D forms with d. Residues, ends and D or L forms follow the SMILES beside them. Chains are numbered I, II in the order given. *: point of attachment. X2 = CC(=O)NC1CCCN(O)C(=O)C=C(C)CCOC(=O)C(NC(=O)CCN2C(=O)CC([*:1])C2=O)CCCN(O)C(=O)C=C(C)CCOC(=O)C(NC(=O)CCN2C(=O)CC([*:2])C2=O)CCCN(O)C(=O)C=C(C)CCOC1=O; X3 = CC(=O)NC1CCCN(O)C(=O)C=C(C)CCOC(=O)C(NC(=O)CCN2C(=O)CC(*)C2=O)CCCN(O)C(=O)C=C(C)CCOC(=O)C(NC(C)=O)CCCN(O)C(=O)C=C(C)CCOC1=O; Nle = CCCC[C@H](N)C(=O)O; Mpa = O=C(O)CCS
# What was measured:
# [1] = system: A431-CCK2R/A431-mock tumour xenografted BALB/c nude mice; conditions: mouse, in vivo; cited from earlier work
# [2] = cited from earlier work
# CCK2 receptor = target: T1, CCK2 receptor (Homo sapiens, UniProt P32239); parameters: method as in PMID 29849512; conditions: natGa-labelled competitor; 125I-[Leu15]-Gastrin radioligand; whole A431-CCK2R cells; cited from earlier work
# T1 construct: expressed in transfected cells; host or cells: A431 human epidermoid carcinoma cells (A431-CCK2R), gift from Dr. L. Aloj
# T1 sequence (P32239 1-447): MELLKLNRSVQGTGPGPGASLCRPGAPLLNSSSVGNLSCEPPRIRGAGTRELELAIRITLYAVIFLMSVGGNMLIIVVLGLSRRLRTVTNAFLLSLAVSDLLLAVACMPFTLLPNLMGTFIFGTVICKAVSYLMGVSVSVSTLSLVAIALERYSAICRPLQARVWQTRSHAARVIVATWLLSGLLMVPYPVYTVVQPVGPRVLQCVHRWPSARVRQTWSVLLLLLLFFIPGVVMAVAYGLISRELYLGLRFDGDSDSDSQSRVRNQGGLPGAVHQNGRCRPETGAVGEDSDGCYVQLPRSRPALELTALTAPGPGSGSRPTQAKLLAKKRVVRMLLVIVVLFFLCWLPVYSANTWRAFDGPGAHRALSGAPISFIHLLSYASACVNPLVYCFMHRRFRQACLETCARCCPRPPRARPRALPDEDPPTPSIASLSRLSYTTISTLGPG
# [3] = type: physicochemical; conditions: pH 7.4
# Procedure: To determine the distribution of the ^68Ga-radiolabelled conjugates between an organic and aqueous layer aliquots (50 μL) of the tracers (10 μM) were diluted in 450 μL PBS and after adding 500 μL octanol the mixture was vortexed at 1400 rpm (MS 3 basic vortexer, IKA, Staufen, Germany) for 15 min at RT followed by centrifugation for 2 min at 4500 rpm. Subsequently, aliquots (100 μL) of both layers were collected and measured in the gamma counter (Wizard2 3”, Perkin Elmer, Waltham, MA, USA) followed by logD calculation using Excel (n = 3, six replicates).
# [4] = system: A431-CCK2R/A431-mock tumour xenografted BALB/c nude mice; test: in vivo; conditions: mouse
# Procedure: (§1) Ex vivo biodistribution studies were conducted using female 8−10 weeks old athymic BALB/c nude mice (Charles River Laboratories, Sulzfeld, Germany). Tumour xenografts were induced by subcutaneous injection of 2 × 10^6 A431-CCK2R cells (receptor positive) in the right and 2 × 10^6 A431-mock cells (receptor negative) in the left flank and tumours were allowed to grow until they had reached a volume of 0.3–0.6 cm^3.To evaluate the biodistribution profile double tumour xenografted BALB/c nude mice (n = 3) were intravenously injected with 1–2 MBq of ^68Ga-labelled peptides (0.1–0.2 nmol). The animals were sacrificed by cervical dislocation after 1 h and 4 h in case of the trimer. The collected samples were measured in the gamma counter and the results were calculated as percentage of injected activity per gram tissue (% IA/g).
# in vivo = test: in vivo; parameters: species or system BALB/c nude mice; conditions: female, BALB/c nude, mouse, iv, total radioactivity
# Procedure: as §1
smiles,measurement,setting,value
CSCC[C@H](NC(=O)[C@H](Cc1c[nH]c2ccccc12)NC(=O)CNC(=O)[C@H](Cc1ccc(O)cc1)NC(=O)[C@H](C)NC(=O)[C@@H](CCC(=O)O)NC(=O)CCSC1CC(=O)N(CCC(=O)NC2CCCN(O)C(=O)C=C(C)CCOC(=O)C(NC(=O)CCN3C(=O)CC(SCCC(=O)N[C@H](CCC(=O)O)C(=O)N[C@@H](C)C(=O)N[C@@H](Cc4ccc(O)cc4)C(=O)NCC(=O)N[C@@H](Cc4c[nH]c5ccccc45)C(=O)N[C@@H](CCSC)C(=O)N[C@@H](CC(=O)O)C(=O)N[C@@H](Cc4ccccc4)C(N)=O)C3=O)CCCN(O)C(=O)C=C(C)CCOC(=O)C(NC(C)=O)CCCN(O)C(=O)C=C(C)CCOC2=O)C1=O)C(=O)N[C@@H](CC(=O)O)C(=O)N[C@@H](Cc1ccccc1)C(N)=O (stereo partly shown) [Dimer-Met] (I: [Mpa][dE]AYGWMDF-NH2 / II: [Mpa][dE]AYGWMDF-NH2; linker I:1-II:1 via X2),Ratio T/O tumour-to-A431-mock,[1],17.9 ± 6.1^c
same,Ratio T/O tumour-to-Blood,[1],16.0 ± 3.1^cd
same,Ratio T/O tumour-to-Bone,[1],11.6 ± 1.9^c
same,Ratio T/O tumour-to-Heart,[1],27.2 ± 4.8^cd
same,Ratio T/O tumour-to-Intestine,[1],19.9 ± 4.9^acd
same,Ratio T/O tumour-to-Kidneys,[1],0.30 ± 0.06^c
same,Ratio T/O tumour-to-Liver,[1],11.1 ± 2.4^cd
same,Ratio T/O tumour-to-Lung,[1],14.4 ± 2.3^cd
same,Ratio T/O tumour-to-Muscle,[1],31.4 ± 13.2^c
same,Ratio T/O tumour-to-Pancreas,[1],17.9 ± 3.2^cd
same,Ratio T/O tumour-to-Spleen,[1],23.1 ± 4.2^cd
same,Ratio T/O tumour-to-Stomach,[1],4.0 ± 0.5^cd
same,Distribution coefficient logD (pH 7.4),[2],-2.38 ± 0.04
same,IC50,CCK2 receptor,0.85 ± 0.15 nM
CCCC[C@H](NC(=O)[C@H](Cc1c[nH]c2ccccc12)NC(=O)CNC(=O)[C@H](Cc1ccc(O)cc1)NC(=O)[C@H](C)NC(=O)[C@@H](CCC(=O)O)NC(=O)CCSC1CC(=O)N(CCC(=O)NC2CCCN(O)C(=O)C=C(C)CCOC(=O)C(NC(C)=O)CCCN(O)C(=O)C=C(C)CCOC(=O)C(NC(C)=O)CCCN(O)C(=O)C=C(C)CCOC2=O)C1=O)C(=O)N[C@@H](CC(=O)O)C(=O)N[C@@H](Cc1ccccc1)C(N)=O (stereo partly shown) [Monomer-Nle] ([Mpa](X3)[dE]AYGW[Nle]DF-NH2),logD,[3],-2.69 ± 0.14
same,Ratio T/O tumour-to-A431-mock,[4],9.8 ± 2.2^b
same,tissue uptake at 1 h,in vivo; A431-CCK2R tumour uptake,1.97 ± 0.25 %ID/g
same,tissue uptake at 1 h,in vivo; A431-mock tumour uptake,0.22 ± 0.07 %ID/g
same,tissue uptake at 1 h,in vivo; Blood uptake,0.25 ± 0.07 %ID/g
same,tissue uptake at 1 h,in vivo; Bone uptake,0.3 ± 0.12 %ID/g
same,tissue uptake at 1 h,in vivo; Heart uptake,0.12 ± 0.03 %ID/g
same,tissue uptake at 1 h,in vivo; Intestine uptake,0.36 ± 0.12 %ID/g
same,tissue uptake at 1 h,in vivo; Kidneys uptake,2.72 ± 0.29 %ID/g
same,tissue uptake at 1 h,in vivo; Liver uptake,0.17 ± 0.01 %ID/g
same,tissue uptake at 1 h,in vivo; Lung uptake,0.25 ± 0.03 %ID/g
same,tissue uptake at 1 h,in vivo; Muscle uptake,0.1 ± 0.02 %ID/g
same,tissue uptake at 1 h,in vivo; Pancreas uptake,0.24 ± 0.02 %ID/g
same,tissue to tissue ratio at 1 h,in vivo; Ratio T/O tumour-to-Blood,9 ± 3.6
same,tissue to tissue ratio at 1 h,in vivo; Ratio T/O tumour-to-Bone,7.9 ± 3.1
same,tissue to tissue ratio at 1 h,in vivo; Ratio T/O tumour-to-Heart,17.6 ± 5.2
same,tissue to tissue ratio at 1 h,in vivo; Ratio T/O tumour-to-Intestine,6.6 ± 3.6
same,tissue to tissue ratio at 1 h,in vivo; Ratio T/O tumour-to-Kidneys,0.75 ± 0.18
same,tissue to tissue ratio at 1 h,in vivo; Ratio T/O tumour-to-Liver,11.5 ± 2
same,tissue to tissue ratio at 1 h,in vivo; Ratio T/O tumour-to-Lung,8.1 ± 2.1
same,tissue to tissue ratio at 1 h,in vivo; Ratio T/O tumour-to-Muscle,22.1 ± 6
same,tissue to tissue ratio at 1 h,in vivo; Ratio T/O tumour-to-Pancreas,8.4 ± 1.6
same,tissue to tissue ratio at 1 h,in vivo; Ratio T/O tumour-to-Spleen,19.8 ± 4
same,tissue to tissue ratio at 1 h,in vivo; Ratio T/O tumour-to-Stomach,3.1 ± 0.9
same,tissue uptake at 1 h,in vivo; Spleen uptake,0.1 ± 0.03 %ID/g
same,tissue uptake at 1 h,in vivo; Stomach uptake,0.66 ± 0.11 %ID/g
